Source: IntAct's records for PubMed 29778605

B1: Vacuolar protein sorting-associated protein 33B (Homo sapiens), Q9H267 (parent)
chain: MAFPHRPDAPELPDFSMLKRLARDQLIYLLEQLPGKKDLFIEADLMSPLDRIANVSILKQHEVDKLYKVENKPALSSNEQLCFLVRPRIKNMRYIASLVNADKLAGRTRKYKVIFSPQKFYACEMVLEEEGIYGDVSCDEWAFSLLPLDVDLLSMELPEFFRDYFLEGDQRWINTVAQALHLLSTLYGPFPNCYGIGRCAKMAYELWRNLEEEEDGETKGRRPEIGHIFLLDRDVDFVTALCSQVVYEGLVDDTFRIKCGSVDFGPEVTSSDKSLKVLLNAEDKVFNEIRNEHFSNVFGFLSQKARNLQAQYDRRRGMDIKQMKNFVSQELKGLKQEHRLLSLHIGACESIMKKKTKQDFQELIKTEHALLEGFNIRESTSYIEEHIDRQVSPIESLRLMCLLSITENGLIPKDYRSLKTQYLQSYGPEHLLTFSNLRRAGLLTEQAPGDTLTAVESKVSKLVTDKAAGKITDAFSSLAKRSNFRAISKKLNLIPRVDGEYDLKVPRDMAYVFGGAYVPLSCRIIEQVLERRSWQGLDEVVRLLNCSDFAFTDMTKEDKASSESLRLILVVFLGGCTFSEISALRFLGREKGYRFIFLTTAVTNSARLMEAMSEVKA
partner: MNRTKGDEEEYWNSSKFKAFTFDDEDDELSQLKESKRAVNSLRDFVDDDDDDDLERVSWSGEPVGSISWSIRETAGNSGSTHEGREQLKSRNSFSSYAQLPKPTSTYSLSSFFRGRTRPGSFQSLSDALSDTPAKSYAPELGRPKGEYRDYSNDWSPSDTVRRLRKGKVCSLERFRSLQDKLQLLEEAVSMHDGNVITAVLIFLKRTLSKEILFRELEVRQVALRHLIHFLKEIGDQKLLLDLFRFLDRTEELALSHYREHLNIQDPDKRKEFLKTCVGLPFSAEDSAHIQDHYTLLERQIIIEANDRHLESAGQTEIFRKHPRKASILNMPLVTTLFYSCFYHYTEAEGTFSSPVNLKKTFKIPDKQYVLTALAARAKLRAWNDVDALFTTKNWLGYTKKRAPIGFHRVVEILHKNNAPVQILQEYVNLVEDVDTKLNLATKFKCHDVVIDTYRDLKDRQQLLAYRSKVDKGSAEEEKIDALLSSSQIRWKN
B2: Vacuolar protein sorting-associated protein 33A (Homo sapiens), Q96AX1 (parent)
chain: MAAHLSYGRVNLNVLREAVRRELREFLDKCAGSKAIVWDEYLTGPFGLIAQYSLLKEHEVEKMFTLKGNRLPAADVKNIIFFVRPRLELMDIIAENVLSEDRRGPTRDFHILFVPRRSLLCEQRLKDLGVLGSFIHREEYSLDLIPFDGDLLSMESEGAFKECYLEGDQTSLYHAAKGLMTLQALYGTIPQIFGKGECARQVANMMIRMKREFTGSQNSIFPVFDNLLLLDRNVDLLTPLATQLTYEGLIDEIYGIQNSYVKLPPEKFAPKKQGDGGKDLPTEAKKLQLNSAEELYAEIRDKNFNAVGSVLSKKAKIISAAFEERHNAKTVGEIKQFVSQLPHMQAARGSLANHTSIAELIKDVTTSEDFFDKLTVEQEFMSGIDTDKVNNYIEDCIAQKHSLIKVLRLVCLQSVCNSGLKQKVLDYYKREILQTYGYEHILTLHNLEKAGLLKPQTGGRNNYPTIRKTLRLWMDDVNEQNPTDISYVYSGYAPLSVRLAQLLSRPGWRSIEEVLRILPGPHFEERQPLPTGLQKKRQPGENRVTLIFFLGGVTFAEIAALRFLSQLEDGGTEYVIATTKLMNGTSWIEALMEKPF
partner: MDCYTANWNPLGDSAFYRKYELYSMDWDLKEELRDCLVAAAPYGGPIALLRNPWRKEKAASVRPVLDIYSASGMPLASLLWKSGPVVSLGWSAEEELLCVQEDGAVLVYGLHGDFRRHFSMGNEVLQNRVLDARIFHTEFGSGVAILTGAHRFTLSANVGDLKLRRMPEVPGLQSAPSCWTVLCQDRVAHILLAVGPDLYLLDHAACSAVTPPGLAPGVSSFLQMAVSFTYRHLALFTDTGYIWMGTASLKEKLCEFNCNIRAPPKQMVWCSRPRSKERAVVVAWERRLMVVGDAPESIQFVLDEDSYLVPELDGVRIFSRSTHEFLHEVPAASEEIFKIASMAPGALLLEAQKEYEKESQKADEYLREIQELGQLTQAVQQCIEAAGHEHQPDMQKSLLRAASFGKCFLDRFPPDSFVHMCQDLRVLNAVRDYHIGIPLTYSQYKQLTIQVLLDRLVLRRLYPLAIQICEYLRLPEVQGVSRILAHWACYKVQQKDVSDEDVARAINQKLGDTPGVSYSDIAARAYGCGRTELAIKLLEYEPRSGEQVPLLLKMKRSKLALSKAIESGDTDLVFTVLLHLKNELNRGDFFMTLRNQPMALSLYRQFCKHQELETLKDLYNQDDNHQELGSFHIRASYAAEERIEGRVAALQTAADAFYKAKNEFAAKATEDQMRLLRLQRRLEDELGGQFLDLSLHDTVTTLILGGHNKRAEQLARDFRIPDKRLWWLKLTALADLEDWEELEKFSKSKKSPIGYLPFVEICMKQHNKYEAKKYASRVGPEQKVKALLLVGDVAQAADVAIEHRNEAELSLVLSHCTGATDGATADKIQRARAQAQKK

Variants of: B1
Conditions: with spe39_human VIPAS39, Q9H9C1

| effect of a mutation on the interaction | Variant |
| --- | --- |
| decreasing interaction strength | P428D;L431K |
| disrupting interaction strength | K419D;L431K |

Variants of: B2
Conditions: with vps16_human VPS16, Q9H269

| effect of a mutation on the interaction | Variant |
| --- | --- |
| disrupting interaction strength | Y438D;I441K |
